Patent US20030159166A1 (ORTHO MCNEIL PHARMACEUTICAL, published 2003)

Biological target: T1, recombinant soluble HLA-DM (human, UniProt P28067 27-233; P28068 19-218)
T1 construct: extracellular domain; Expressed in Drosophila Schneider-2 cells, purified on Ni-NTA agarose and by gel filtration
Assay: in vitro complex formation, isolation on Ni-NTA agarose by the His tag of DM

B1: DO-Fc fusion protein (extracellular domains of DOA and DOB fused to the Fc domain of human IgG1) (Fc fusion)
MHC II alpha: TKADHMGSYGPAFYQSYGASGQFTHEFDEEQLFSVDLKKSEAVWRLPEFGDFARFDPQGGLAGIAAIKAHLDILVERSNRSRAINVPPRVTVLPKSRVELGQPNILICIVDNIFPPVINITWLRNGQTVTEGVAQTSFYSQPDHLFRKFHYLPFVPSAEDVYDCQVEHWGLDAPLLRHWELQVPIPPPDAME
MHC II beta: TDSPEDFVIQAKADCYFTNGTEKVQFVVRFIFNLEEYVRFDSDVGMFVALTKLGQPDAEQWNSRLDLLERSRQAVDGVCRHNYRLGAPFTVGRKVQPEVTVYPERTPLLHQHNLLHCSVTGFYPGDIKIKWFLNGQEERAGVMSTGPIRNGDWTFQTVVMLEMTPELGHVYTCLVDHSSLLSPVSVEWRAQSEYSWRK
notes: extracellular domain; Expressed in Drosophila Schneider-2 cells, purified on protein A sepharose; also called HLA-DO; not shown: human IgG1 Fc domain
B1: binds.
